Laboratory results reported in the supplement of paper PMC10567573.

B1: HSP90AB1 (parent)
chain: TLRQKAEADKNDKAVKDLVVLLFE
B2: BTBD1 (parent)
chain: IVGFGLYGSIHGPTDYQVNIQIIE

Variants of: B1
Assay: protein stability index of a GFP-peptide fusion (GPS, HEK-293T) (PSI 1-6); higher = more stable
Settings: c terminus: a fixed tail appended
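Note: lentivirally expressed fusions sorted by FACS into six bins by GFP to DsRed ratio, PSI derived from sequencing read proportions per bin multiplied by bin number.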

Protein stability index of substitutions, site by site:
L21: D 4.26 | E 3.98 | F 2.35 | G 3.63 | I 2.35 | K 2.91 | N 3.89 | P 4.61 | Q 3.52 | R 3.31 | S 3.44 | T 3.5 | V 3.06 | W 1.73 | Y 2.41
L22: C 3.82 | D 4.86 | E 4.86 | F 2.84 | G 4.5 | H 3.79 | K 4.47 | M 3.15 | N 4.2 | P 4.97 | Q 4.84 | R 3.9 | S 4.34 | T 3.96 | V 3.73 | Y 2.78
F23: A 3.7 | C 3.71 | D 5.38 | E 5.22 | G 4.87 | H 4.5 | I 2.88 | K 4.69 | L 3.27 | M 3.37 | N 4.73 | P 5.02 | Q 4.55 | R 3.79 | S 3.95 | T 4.76 | W 2.56 | Y 3.47
E24: A 1.89 | C 1.43 | D 2.83 | F 1.83 | G 2.26 | H 2.79 | I 2.54 | K 2.06 | L 2.54 | M 1.83 | N 2.44 | P 1.71 | Q 2.64 | R 2.04 | S 2.19 | T 2.14 | V 2.01 | W 1.97 | Y 2.21

Variants of: B2
Assay: as above
Settings: c terminus: a fixed tail appended

Protein stability index, by site and new letter:
I1: C 2.91 | D 2.03 | E 3.29 | F 3.14 | G 3.43 | H 2.38 | K 2.14 | N 2.16 | P 1.82 | Q 3.04 | R 1.65 | S 1.77 | T 1.82 | V 3.69
V2: A 2.81 | C 3.88 | D 2.79 | G 2.59 | I 2.6 | K 2.02 | M 2.49 | P 1.76 | Q 4.24 | R 2.96 | W 3.31 | Y 2.16
G3: A 3.04 | D 3.42 | E 2.82 | F 3.55 | K 3.18 | N 3.38 | P 2.64 | R 4.02 | S 1.66 | V 3.82 | W 4.95
F4: A 1.97 | C 2.29 | D 2.64 | G 1.56 | H 2.54 | I 3.05 | K 2.39 | L 3.57 | M 2.47 | P 1.87 | Q 1.9 | R 2.25 | S 2.07 | T 2.1 | W 1.8
G5: A 4.32 | C 2.63 | D 2.4 | H 2.33 | K 2.34 | M 2.92 | N 3.75 | P 2.36 | Q 3.76 | R 2.57 | S 1.62 | T 2.89 | W 2.79 | Y 3.17
L6: A 3.31 | D 2.33 | E 2.02 | F 4.24 | G 4.42 | H 3.36 | I 2.75 | M 1.94 | N 2.56 | P 3.27 | Q 3.25 | R 2.67 | T 2.16 | V 3.11 | W 1.76 | Y 3.48
Y7: C 2.57 | E 3.6 | F 1.86 | G 2.06 | H 3.81 | K 3.4 | M 2.82 | N 2.96 | P 3.54 | R 4.6 | S 2.47 | V 2.16 | W 3.5
G8: D 2.86 | F 2.78 | H 2.61 | I 2.28 | K 2.89 | L 2.81 | M 2.04 | N 2.5 | P 4.75 | Q 3.42 | R 1.45 | T 2.37 | Y 2.35
S9: A 1.82 | E 2.74 | F 2.95 | H 1.88 | I 2.88 | L 3.19 | N 3.18 | Q 2.56 | R 2.67 | T 1.99 | V 3.54 | W 2.76 | Y 2.58
I10: C 3.14 | D 2.74 | E 2.58 | F 3.05 | G 5.97 | K 1.76 | M 1.95 | P 2.78 | Q 3.45 | T 3.32 | V 2.09 | W 1.64
H11: C 2.58 | D 1.97 | K 1.55 | N 3.26 | P 2.57 | V 3.12
G12: D 3.52 | E 3.19 | I 1.72 | K 4.19 | L 3.53 | M 2.27 | Q 3.29 | S 3.04 | W 2.56 | Y 1.89
P13: A 2.3 | C 2.51 | D 1.76 | F 2.72 | G 1.57 | I 4.51 | L 2.25 | M 2.48 | Q 3.17 | R 2.35 | T 2.81 | V 2.33 | W 2.76 | Y 2.98
T14: C 2.51 | D 2.94 | H 2.71 | I 2.73 | M 3.23 | N 2.95 | P 3.3 | Q 3.12 | R 4.46 | S 3.24 | V 2.82 | W 2.9 | Y 3.03
D15: A 2.57 | C 2.97 | E 3.19 | G 2.52 | I 3.86 | L 3.05 | M 2.99 | N 2.36 | P 2.37 | S 3.04 | V 2.67 | Y 3.42
Y16: A 2.1 | C 3.51 | D 2.5 | E 2.15 | G 4.04 | H 1.6 | I 3.59 | K 3.23 | L 2.09 | M 2.38 | N 2.41 | Q 1.69 | T 4.3 | W 3.98
Q17: A 3.68 | C 2.49 | D 2.09 | E 2.95 | F 2.95 | G 4.09 | K 2.3 | N 2.98 | P 1.98 | R 3.14 | S 2.31 | T 2.53 | V 2.48 | Y 2.44
V18: D 2.32 | E 2.36 | F 2.14 | H 1.58 | I 2.72 | K 2.42 | L 3.15 | N 1.8 | Q 2.38 | R 2.39 | T 4
N19: G 1.59 | H 1.59 | I 3.1 | M 4.59 | P 3.38 | Q 2.56 | R 2.13 | T 3.11 | V 4.07 | W 1.76
I20: A 2.29 | C 2.49 | D 2.31 | E 1.46 | H 2.21 | K 1.16 | L 3.4 | M 4.04 | N 1.24 | P 2.21 | Q 2.58 | R 2.12 | S 1.93 | T 2.13 | V 2.83
Q21: A 3.82 | C 2.19 | D 3.52 | E 2.68 | F 1.77 | G 2.44 | I 2.01 | L 2.66 | P 2.37 | R 2.53 | T 2.1 | W 1.5 | Y 3.06
I22: A 2.07
